Here are results for four substances from US20240316154A1.

Assay in all cases: cell-based or functional assay
Experiment [1] concerns the target human GFRAL and human RET on HEK293 cells (human) (UniProt Q6UXV0).
The target of experiment [2] is IL-2 receptor-dimer pair of the PathHunter IL-2 BioAssay cells.
Experiment [3] addresses human CNTF receptor (CNTFR) on IMR-32 cells (human) (UniProt P26992).
For experiment [4], the target named is human ErbB4 receptor (NCBI Ref. Seq. No. NP_001036064.1) (human) (UniProt Q15303).

Sequence of human CNTF receptor (CNTFR) on IMR-32 cells (human) (P26992 23-342): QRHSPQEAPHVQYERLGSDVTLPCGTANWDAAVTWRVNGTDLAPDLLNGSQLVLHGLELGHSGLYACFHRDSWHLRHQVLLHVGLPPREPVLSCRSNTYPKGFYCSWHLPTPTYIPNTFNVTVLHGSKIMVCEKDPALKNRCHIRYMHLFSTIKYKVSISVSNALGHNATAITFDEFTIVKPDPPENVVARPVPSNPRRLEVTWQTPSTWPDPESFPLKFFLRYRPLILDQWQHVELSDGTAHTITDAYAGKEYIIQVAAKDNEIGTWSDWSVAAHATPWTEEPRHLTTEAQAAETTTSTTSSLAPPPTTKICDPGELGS

“Human GDF15 (from UniProt Q99988 197-308) (ligand)” registered a hGFRAL/RET EC50 (pM), p-ERK1/2 AlphaLISA in experiment [1] of 2.85 pM.
“Human IL-2 (reference standard of the PathHunter IL-2 BioAssay Kit) (from UniProt P60568 21-153) (ligand)” came in with an EC50 (nM), PathHunter IL-2 BioAssay in experiment [2] of 0.13 nM.
In experiment [3], “human CNTF (R&D Systems; Cat #257-NT-010) (from UniProt P26441 2-200) (ligand)” registered a hCNTFR EC50 pM GeoMean (pSTAT3 in IMR-32 cells) of 3.5 pM.
On to “rhNRG-1 (eurofins cat #92-1091) (from UniProt Q02297 177-241) (ligand)”, for which the EC50 (ng/mL), PathHunter ErbB4/ErbB4 dimerization assay in experiment [4] amounted to 16.5 ng/mL.
